These sequences were tested on Escherichia coli TOP10 (assay: shrunken log2 fold change of peptide-encoding DNA abundance (4.5 h post-induction vs induction); higher = less antimicrobial activity (less host growth inhibition)). Conditions: time post-induction: 4.5 h; library: site-saturation at positions 5, 18, 19, 20.
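Note: peptides expressed intracellularly from a pBAD plasmid library in pooled LB shake-flask culture, induced with 0.3% L-arabinose, DNA abundance read by NGS, three biological replicates, DESeq2 with apeglm shrinkage.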

Row | Sequence | shrunken log2 fold change
1 | RRIRIRPPRLPRPRPRPAIMPRP | -0.565
2 | RRIRIRPPRLPRPRPRPAIWPRP | 0.0492
3 | RRIRIRPPRLPRPRPRPAKAPRP | -0.00404
4 | RRIRIRPPRLPRPRPRPAKQPRP | 0.0314
5 | RRIRIRPPRLPRPRPRPALNPRP | -0.484
6 | RRIRIRPPRLPRPRPRPALQPRP | -0.011
7 | RRIRIRPPRLPRPRPRPAQSPRP | 0.227
8 | RRIRIRPPRLPRPRPRPARHPRP | 0.0869
9 | RRIRIRPPRLPRPRPRPASVPRP | -0.102
10 | RRIRIRPPRLPRPRPRPATKPRP | -0.195
11 | RRIRIRPPRLPRPRPRPATWPRP | -0.273
12 | RRIRIRPPRLPRPRPRPAVAPRP | 0.0259
13 | RRIRIRPPRLPRPRPRPAYMPRP | -0.688
14 | RRIRIRPPRLPRPRPRPCAAPRP | -0.0041
15 | RRIRIRPPRLPRPRPRPCATPRP | -0.122
16 | RRIRIRPPRLPRPRPRPCFFPRP | -0.503
17 | RRIRIRPPRLPRPRPRPCHVPRP | -0.401
18 | RRIRIRPPRLPRPRPRPCIGPRP | -0.632
19 | RRIRIRPPRLPRPRPRPCIPPRP | -0.307
20 | RRIRIRPPRLPRPRPRPCKMPRP | -0.0175
21 | RRIRIRPPRLPRPRPRPCKRPRP | 0.0279
22 | RRIRIRPPRLPRPRPRPCKYPRP | -1.03
23 | RRIRIRPPRLPRPRPRPCLKPRP | -0.16
24 | RRIRIRPPRLPRPRPRPCMKPRP | -1.01
25 | RRIRIRPPRLPRPRPRPCMYPRP | -0.573

Row | Sequence | shrunken log2 fold change
26 | RRIRIRPPRLPRPRPRPCPKPRP | -0.564
27 | RRIRIRPPRLPRPRPRPCRLPRP | -0.468
28 | RRIRIRPPRLPRPRPRPCRVPRP | -1.39
29 | RRIRIRPPRLPRPRPRPCVLPRP | -0.145
30 | RRIRIRPPRLPRPRPRPCVYPRP | -0.227
31 | RRIRIRPPRLPRPRPRPCWLPRP | -0.196
32 | RRIRIRPPRLPRPRPRPCWRPRP | 0.157
33 | RRIRIRPPRLPRPRPRPCYVPRP | -0.411
34 | RRIRIRPPRLPRPRPRPDAVPRP | 0.0396
35 | RRIRIRPPRLPRPRPRPDCLPRP | 0.0966
36 | RRIRIRPPRLPRPRPRPDDMPRP | -0.0552
37 | RRIRIRPPRLPRPRPRPDGSPRP | -0.189
38 | RRIRIRPPRLPRPRPRPDGYPRP | -0.00133
39 | RRIRIRPPRLPRPRPRPDHWPRP | 0.0629
40 | RRIRIRPPRLPRPRPRPDHYPRP | -0.38
41 | RRIRIRPPRLPRPRPRPDKCPRP | -0.0188
42 | RRIRIRPPRLPRPRPRPDKLPRP | -0.275
43 | RRIRIRPPRLPRPRPRPDMCPRP | 0.00741
44 | RRIRIRPPRLPRPRPRPDMEPRP | 0.0763
45 | RRIRIRPPRLPRPRPRPDNIPRP | -0.116
46 | RRIRIRPPRLPRPRPRPDNRPRP | -0.00277
47 | RRIRIRPPRLPRPRPRPDPDPRP | -0.131
48 | RRIRIRPPRLPRPRPRPDPKPRP | -0.183
49 | RRIRIRPPRLPRPRPRPDQYPRP | -0.0181
50 | RRIRIRPPRLPRPRPRPDSCPRP | -0.972

Row | Sequence | shrunken log2 fold change
51 | RRIRIRPPRLPRPRPRPDSFPRP | 0.0771
52 | RRIRIRPPRLPRPRPRPDSNPRP | -0.168
53 | RRIRIRPPRLPRPRPRPDSQPRP | -0.0342
54 | RRIRIRPPRLPRPRPRPDTAPRP | -0.232
55 | RRIRIRPPRLPRPRPRPDTTPRP | -0.243
56 | RRIRIRPPRLPRPRPRPDWHPRP | -0.882
57 | RRIRIRPPRLPRPRPRPECGPRP | -0.118
58 | RRIRIRPPRLPRPRPRPEDYPRP | -0.0393
59 | RRIRIRPPRLPRPRPRPEELPRP | -0.0241
60 | RRIRIRPPRLPRPRPRPEGRPRP | -0.0382
61 | RRIRIRPPRLPRPRPRPEHFPRP | -0.0163
62 | RRIRIRPPRLPRPRPRPELKPRP | 0.224
63 | RRIRIRPPRLPRPRPRPELSPRP | -0.476
64 | RRIRIRPPRLPRPRPRPELVPRP | -0.105
65 | RRIRIRPPRLPRPRPRPEMMPRP | 0.0516
66 | RRIRIRPPRLPRPRPRPEMWPRP | 0.0226
67 | RRIRIRPPRLPRPRPRPENWPRP | -0.00191
68 | RRIRIRPPRLPRPRPRPEPHPRP | -0.0648
69 | RRIRIRPPRLPRPRPRPEPIPRP | 0.185
70 | RRIRIRPPRLPRPRPRPEPNPRP | -0.0783
71 | RRIRIRPPRLPRPRPRPESGPRP | -0.135
72 | RRIRIRPPRLPRPRPRPESWPRP | 0.249
73 | RRIRIRPPRLPRPRPRPETCPRP | 0.00626
74 | RRIRIRPPRLPRPRPRPFADPRP | -0.26
75 | RRIRIRPPRLPRPRPRPFAFPRP | -0.155

Row | Sequence | shrunken log2 fold change
76 | RRIRIRPPRLPRPRPRPFAPPRP | 1.3
77 | RRIRIRPPRLPRPRPRPFEDPRP | -0.207
78 | RRIRIRPPRLPRPRPRPFETPRP | -0.231
79 | RRIRIRPPRLPRPRPRPFFGPRP | -0.00653
80 | RRIRIRPPRLPRPRPRPFFPPRP | -0.264
81 | RRIRIRPPRLPRPRPRPFGFPRP | -0.694
82 | RRIRIRPPRLPRPRPRPFHDPRP | -0.374
83 | RRIRIRPPRLPRPRPRPFLEPRP | -1.1
84 | RRIRIRPPRLPRPRPRPFMPPRP | -0.821
85 | RRIRIRPPRLPRPRPRPFNDPRP | -0.0749
86 | RRIRIRPPRLPRPRPRPFNMPRP | -2.55
87 | RRIRIRPPRLPRPRPRPFNTPRP | -0.191
88 | RRIRIRPPRLPRPRPRPFPFPRP | -1.39
89 | RRIRIRPPRLPRPRPRPFPHPRP | -0.174
90 | RRIRIRPPRLPRPRPRPFPRPRP | -0.123
91 | RRIRIRPPRLPRPRPRPFRFPRP | -0.392
92 | RRIRIRPPRLPRPRPRPFRPPRP | 0.023
93 | RRIRIRPPRLPRPRPRPFSCPRP | -0.534
94 | RRIRIRPPRLPRPRPRPFSQPRP | -0.52
95 | RRIRIRPPRLPRPRPRPFTEPRP | 0.0282
96 | RRIRIRPPRLPRPRPRPFTIPRP | -0.246
97 | RRIRIRPPRLPRPRPRPFTLPRP | 0.0488
98 | RRIRIRPPRLPRPRPRPFTSPRP | -0.475
99 | RRIRIRPPRLPRPRPRPFVHPRP | -0.498
100 | RRIRIRPPRLPRPRPRPFWCPRP | -0.014

Row | Sequence | shrunken log2 fold change
101 | RRIRIRPPRLPRPRPRPFWWPRP | 0.0783
102 | RRIRIRPPRLPRPRPRPFYIPRP | -0.308
103 | RRIRIRPPRLPRPRPRPGASPRP | 0.0546
104 | RRIRIRPPRLPRPRPRPGAWPRP | 0.215
105 | RRIRIRPPRLPRPRPRPGERPRP | -0.0896
106 | RRIRIRPPRLPRPRPRPGFFPRP | -0.00894
107 | RRIRIRPPRLPRPRPRPGFHPRP | 0.876
108 | RRIRIRPPRLPRPRPRPGGAPRP | 0.288
109 | RRIRIRPPRLPRPRPRPGGIPRP | -0.279
110 | RRIRIRPPRLPRPRPRPGGNPRP | -0.0373
111 | RRIRIRPPRLPRPRPRPGHIPRP | -0.327
112 | RRIRIRPPRLPRPRPRPGHLPRP | -0.101
113 | RRIRIRPPRLPRPRPRPGIKPRP | -0.0876
114 | RRIRIRPPRLPRPRPRPGLTPRP | -0.0421
115 | RRIRIRPPRLPRPRPRPGLWPRP | 0.0804
116 | RRIRIRPPRLPRPRPRPGMNPRP | -0.0956
117 | RRIRIRPPRLPRPRPRPGNEPRP | -0.0358
118 | RRIRIRPPRLPRPRPRPGPDPRP | -0.0181
119 | RRIRIRPPRLPRPRPRPGQKPRP | -0.0432
120 | RRIRIRPPRLPRPRPRPGRYPRP | -0.0696
121 | RRIRIRPPRLPRPRPRPGSPPRP | -0.19
122 | RRIRIRPPRLPRPRPRPGTIPRP | -0.438
123 | RRIRIRPPRLPRPRPRPGVIPRP | -0.0127
124 | RRIRIRPPRLPRPRPRPGWVPRP | 0.28
125 | RRIRIRPPRLPRPRPRPGYGPRP | -0.309

Row | Sequence | shrunken log2 fold change
126 | RRIRIRPPRLPRPRPRPHCHPRP | -0.394
127 | RRIRIRPPRLPRPRPRPHCRPRP | -0.341
128 | RRIRIRPPRLPRPRPRPHCYPRP | -0.104
129 | RRIRIRPPRLPRPRPRPHEGPRP | -0.0113
130 | RRIRIRPPRLPRPRPRPHGLPRP | -0.00134
131 | RRIRIRPPRLPRPRPRPHGNPRP | 0.142
132 | RRIRIRPPRLPRPRPRPHHFPRP | -0.313
133 | RRIRIRPPRLPRPRPRPHHTPRP | -0.677
134 | RRIRIRPPRLPRPRPRPHHYPRP | -0.429
135 | RRIRIRPPRLPRPRPRPHISPRP | -0.0489
136 | RRIRIRPPRLPRPRPRPHIYPRP | 0.13
137 | RRIRIRPPRLPRPRPRPHLEPRP | -0.384
138 | RRIRIRPPRLPRPRPRPHMGPRP | -1.08
139 | RRIRIRPPRLPRPRPRPHMNPRP | -0.845
140 | RRIRIRPPRLPRPRPRPHMRPRP | 0.128
141 | RRIRIRPPRLPRPRPRPHNDPRP | -0.55
142 | RRIRIRPPRLPRPRPRPHPAPRP | -0.516
143 | RRIRIRPPRLPRPRPRPHPSPRP | -0.488
144 | RRIRIRPPRLPRPRPRPHRNPRP | -0.846
145 | RRIRIRPPRLPRPRPRPHSLPRP | 0.0644
146 | RRIRIRPPRLPRPRPRPHSRPRP | -0.197
147 | RRIRIRPPRLPRPRPRPHTCPRP | -0.0906
148 | RRIRIRPPRLPRPRPRPHTMPRP | -0.776
149 | RRIRIRPPRLPRPRPRPHTTPRP | 0.0536
150 | RRIRIRPPRLPRPRPRPHVPPRP | -0.00519
